In the Human Domainome abundance scans (Beltran et al. 2025):
± gives the uncertainty stated by the source.

B1: 3'-5' exoribonuclease 1, residues 65 to 114; numbered along this chain, Q8IV48 (parent)
chain: VYKEIAITNGCINRMSKEELRAKLSEFKLETRGVKDVLKKRLKNYYKKQK

Variants of: B1
Test: abundance fitness (aPCA) (normalised: wild type 0, dead -1); higher = more abundant; growth selection in yeast, the domain comes from the species named
Details: Homo sapiens

Row | Variant | abundance fitness
1 | VYKEIAITNGCINRMSKERLRAKLSEFKLETRGVKDVLKKRLKNYYKKQK [E19R] | -0.438 ± 0.042
2 | VYKEIAITNGCINRMSKENLRAKLSEFKLETRGVKDVLKKRLKNYYKKQK [E19N] | -0.299 ± 0.061
3 | VYKEIAITNGCINRMSKESLRAKLSEFKLETRGVKDVLKKRLKNYYKKQK [E19S] | -0.26 ± 0.04
4 | VYKEIAITNGCINRMSKEALRAKLSEFKLETRGVKDVLKKRLKNYYKKQK [E19A] | -0.147 ± 0.047
5 | VYKEIAITNGCINRMSKEFLRAKLSEFKLETRGVKDVLKKRLKNYYKKQK [E19F] | -0.784 ± 0.075
6 | VYKEIAITNGCINRMSKEYLRAKLSEFKLETRGVKDVLKKRLKNYYKKQK [E19Y] | -0.652 ± 0.056
7 | VYKEIAITNGCINRMSKEDLRAKLSEFKLETRGVKDVLKKRLKNYYKKQK [E19D] | -0.107 ± 0.058
8 | VYKEIAITNGCINRMSKEKLRAKLSEFKLETRGVKDVLKKRLKNYYKKQK [E19K] | -0.324 ± 0.052
9 | VYKEIAITNGCINRMSKEGLRAKLSEFKLETRGVKDVLKKRLKNYYKKQK [E19G] | -0.375 ± 0.04
10 | VYKEIAITNGCINRMSKECLRAKLSEFKLETRGVKDVLKKRLKNYYKKQK [E19C] | -0.382 ± 0.053
11 | VYKEIAITNGCINRMSKEILRAKLSEFKLETRGVKDVLKKRLKNYYKKQK [E19I] | -0.699 ± 0.078
12 | VYKEIAITNGCINRMSKELLRAKLSEFKLETRGVKDVLKKRLKNYYKKQK [E19L] | -0.517 ± 0.041
13 | VYKEIAITNGCINRMSKEPLRAKLSEFKLETRGVKDVLKKRLKNYYKKQK [E19P] | -1.01 ± 0.081
14 | VYKEIAITNGCINRMSKEQLRAKLSEFKLETRGVKDVLKKRLKNYYKKQK [E19Q] | 0.007 ± 0.044
15 | VYKEIAITNGCINRMSKEVLRAKLSEFKLETRGVKDVLKKRLKNYYKKQK [E19V] | -0.379 ± 0.038
16 | VYKEIAITNGCINRMSKEWLRAKLSEFKLETRGVKDVLKKRLKNYYKKQK [E19W] | -0.77 ± 0.061
17 | VYKEIAITNGCINRMSKEELRKKLSEFKLETRGVKDVLKKRLKNYYKKQK [A22K] | 0.057 ± 0.06
18 | VYKEIAITNGCINRMSKEELRIKLSEFKLETRGVKDVLKKRLKNYYKKQK [A22I] | -0.057 ± 0.069
19 | VYKEIAITNGCINRMSKEELRPKLSEFKLETRGVKDVLKKRLKNYYKKQK [A22P] | -0.948 ± 0.079
20 | VYKEIAITNGCINRMSKEELRNKLSEFKLETRGVKDVLKKRLKNYYKKQK [A22N] | -0.027 ± 0.061
21 | VYKEIAITNGCINRMSKEELRMKLSEFKLETRGVKDVLKKRLKNYYKKQK [A22M] | -0.047 ± 0.051
22 | VYKEIAITNGCINRMSKEELRDKLSEFKLETRGVKDVLKKRLKNYYKKQK [A22D] | -0.122 ± 0.051
23 | VYKEIAITNGCINRMSKEELRQKLSEFKLETRGVKDVLKKRLKNYYKKQK [A22Q] | -0.044 ± 0.06
24 | VYKEIAITNGCINRMSKEELRGKLSEFKLETRGVKDVLKKRLKNYYKKQK [A22G] | -0.118 ± 0.034
25 | VYKEIAITNGCINRMSKEELRCKLSEFKLETRGVKDVLKKRLKNYYKKQK [A22C] | -0.032 ± 0.044
26 | VYKEIAITNGCINRMSKEELRFKLSEFKLETRGVKDVLKKRLKNYYKKQK [A22F] | -0.12 ± 0.049

Row | Variant | abundance fitness
27 | VYKEIAITNGCINRMSKEELRHKLSEFKLETRGVKDVLKKRLKNYYKKQK [A22H] | -0.049 ± 0.063
28 | VYKEIAITNGCINRMSKEELRRKLSEFKLETRGVKDVLKKRLKNYYKKQK [A22R] | -0.031 ± 0.038
29 | VYKEIAITNGCINRMSKEELRLKLSEFKLETRGVKDVLKKRLKNYYKKQK [A22L] | -0.052 ± 0.038
30 | VYKEIAITNGCINRMPKEELRAKLSEFKLETRGVKDVLKKRLKNYYKKQK [S16P] | -0.264 ± 0.064
31 | VYKEIAITNGCINRMQKEELRAKLSEFKLETRGVKDVLKKRLKNYYKKQK [S16Q] | -0.54 ± 0.11
32 | VYKEIAITNGCINRMVKEELRAKLSEFKLETRGVKDVLKKRLKNYYKKQK [S16V] | -0.753 ± 0.081
33 | VYKEIAITNGCINRMYKEELRAKLSEFKLETRGVKDVLKKRLKNYYKKQK [S16Y] | -0.461 ± 0.054
34 | VYKEIAITNGCINRMRKEELRAKLSEFKLETRGVKDVLKKRLKNYYKKQK [S16R] | -0.097 ± 0.061
35 | VYKEIAITNGCINRMWKEELRAKLSEFKLETRGVKDVLKKRLKNYYKKQK [S16W] | -1.19 ± 0.29
36 | VYKEIAITNGCINRMNKEELRAKLSEFKLETRGVKDVLKKRLKNYYKKQK [S16N] | -0.041 ± 0.078
37 | VYKEIAITNGCINRMTKEELRAKLSEFKLETRGVKDVLKKRLKNYYKKQK [S16T] | -0.01 ± 0.059
38 | VYKEIAITNGCINRMSKEEGRAKLSEFKLETRGVKDVLKKRLKNYYKKQK [L20G] | -0.942 ± 0.043
39 | VYKEIAITNGCINRMSKEEKRAKLSEFKLETRGVKDVLKKRLKNYYKKQK [L20K] | -0.956 ± 0.085
40 | VYKEIAITNGCINRMSKEESRAKLSEFKLETRGVKDVLKKRLKNYYKKQK [L20S] | -0.479 ± 0.044
41 | VYKEIAITNGCINRMSKEEARAKLSEFKLETRGVKDVLKKRLKNYYKKQK [L20A] | -0.912 ± 0.05
42 | VYKEIAITNGCINRMSKEECRAKLSEFKLETRGVKDVLKKRLKNYYKKQK [L20C] | -0.879 ± 0.064
43 | VYKEIAITNGCINRMSKEEVRAKLSEFKLETRGVKDVLKKRLKNYYKKQK [L20V] | -0.568 ± 0.038
44 | VYKEIAITNGCINRMSKEEMRAKLSEFKLETRGVKDVLKKRLKNYYKKQK [L20M] | -0.282 ± 0.047
45 | VYKEIAITNGCINRMSKEEWRAKLSEFKLETRGVKDVLKKRLKNYYKKQK [L20W] | -0.835 ± 0.044
46 | VYKEIAITNGCINRMSKEEDRAKLSEFKLETRGVKDVLKKRLKNYYKKQK [L20D] | -1 ± 0.089
47 | VYKEIAITNGCINRMSKEEFRAKLSEFKLETRGVKDVLKKRLKNYYKKQK [L20F] | -0.512 ± 0.059
48 | VYKEIAITNGCINRMSKEETRAKLSEFKLETRGVKDVLKKRLKNYYKKQK [L20T] | -0.913 ± 0.06
49 | VYKEIAITNGCINRMSKEEERAKLSEFKLETRGVKDVLKKRLKNYYKKQK [L20E] | -0.78 ± 0.056
50 | VYKEIAITNGCINRMSKEEQRAKLSEFKLETRGVKDVLKKRLKNYYKKQK [L20Q] | -0.892 ± 0.081
51 | VYKEIAITNGCINRMSKEERRAKLSEFKLETRGVKDVLKKRLKNYYKKQK [L20R] | -0.997 ± 0.052
52 | VYKEIAITNGCINRMSKEEPRAKLSEFKLETRGVKDVLKKRLKNYYKKQK [L20P] | -0.961 ± 0.068
